Assay results reported in article PMC8565784.

Key:
[1] = SDS-PAGE-Western blot of VLP Env; details: glycan gained; control: Q23 SOS gp160ΔCT parent
[2] = pQC-Fluc PV neutralisation; details: glycan gained; control: Q23 SOS gp160ΔCT parent

Substance | expression_or_secretion [1] | other: neutralisation sensitivity [2]
Q23 Env: D49N | increases | increases
Q23 Env: D49N+D674N | no change | increases
Q23 Env: D674N | decreases | increases
